# Laboratory results as given in PMC2646909.
# Target: SOD1 G93A (untagged) (human, UniProt P00441 2-154, G94A)
# Test: competition
# Chain of SOD1 G93A (untagged) (P00441 2-154 G94A): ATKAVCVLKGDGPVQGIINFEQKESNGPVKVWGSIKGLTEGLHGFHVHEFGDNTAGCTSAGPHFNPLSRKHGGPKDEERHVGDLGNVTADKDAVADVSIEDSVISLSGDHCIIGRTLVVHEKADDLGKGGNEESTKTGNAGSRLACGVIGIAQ
binder,measurement,value
CGGAGCCCAGCCCUCCCCAUGGAGCCAGCUCCCUCU (ssRNA) [control RNA (no AU-rich sequence)],binding result,no binding
